The values below come from patent US20070275903A1 (Bristol-Myers Squibb, published 2007).

The test system of one data set is T1, Suc-Leu-Ala-Gly-Dox.
T1 sequence: LAG

Another data set concerns T2, Suc-Leu-Ala-Leu-Dox.
T2 sequence: LAL

A further data set deals with T3, Suc-βAla-Leu-Ala-Leu-Dox.
T3 sequence: ALAL

The subject of a further data set is T4, Suc-Leu-Ala-Leu-Dnr.
T4 sequence: LAL

For a further data set, the system named is T5, Suc-Phe-Gly-Phe-Dnr.
T5 sequence: FGF

Another data set concerns T6, Suc-Tyr-Ala-Ile-Dnr.
T6 sequence: YAI

In another data set the test system is T7, Suc-Tyr-Ala-Leu-Dnr.
T7 sequence: YAL

The test system of the next data set is T8, Suc-Phe-Gly-Ile-Dnr.
T8 sequence: FGI

A further data set concerns T9, Suc-Nle-Ala-Leu-Dnr.
T9 sequence: XAL

A further data set has as its system T10, Suc-Leu-Thr-Leu-Dnr.
T10 sequence: LTL

The next data set has as its system T11, Suc-Met-Gly-Phe-Dnr.
T11 sequence: MGF

A further data set deals with T12, Suc-Leu-Tyr-Leu-Dox.
T12 sequence: LYL

The next data set relates to T13, Suc-Met-Gly-Ile-Dnr.
T13 sequence: MGI

The subject of another data set is T14, Suc-Leu-Tyr-Leu-Dnr.
T14 sequence: LYL

The test system of a further data set is T15, Suc-Nle-Gly-Phe-Dnr.
T15 sequence: XGF

A further data set deals with T16, Suc-Met-Ala-Leu-Dox.
T16 sequence: MAL

Another data set concerns T17, Pyg-Leu-Ala-Leu-Dnr.
T17 sequence: LAL

The next data set relates to T18, Suc-Met-Ala-Leu-Dnr.
T18 sequence: MAL

For the next data set, the system named is T19, Suc-Phe-Gly-Leu-Dnr.
T19 sequence: FGL

The subject of the next data set is T20, Suc-Met-Gly-Leu-Dnr.
T20 sequence: MGL

For data set [1], the target named is CD10 expressed on Ramos and Namalwa B-cell lines (UniProt P08473 2-750, limits assumed). Briefly: cell-based or functional assay.

Starred links: 1 amine or outer side, 2 acyl side, 3 side chain; linkers in the order of their positions; H or OH if unused. Suc = O=C(CCC(=O)[*:2])[*:1]; Dox = doxorubicin

Chain of CD10 expressed on Ramos and Namalwa B-cell lines (P08473 2-750 limits assumed): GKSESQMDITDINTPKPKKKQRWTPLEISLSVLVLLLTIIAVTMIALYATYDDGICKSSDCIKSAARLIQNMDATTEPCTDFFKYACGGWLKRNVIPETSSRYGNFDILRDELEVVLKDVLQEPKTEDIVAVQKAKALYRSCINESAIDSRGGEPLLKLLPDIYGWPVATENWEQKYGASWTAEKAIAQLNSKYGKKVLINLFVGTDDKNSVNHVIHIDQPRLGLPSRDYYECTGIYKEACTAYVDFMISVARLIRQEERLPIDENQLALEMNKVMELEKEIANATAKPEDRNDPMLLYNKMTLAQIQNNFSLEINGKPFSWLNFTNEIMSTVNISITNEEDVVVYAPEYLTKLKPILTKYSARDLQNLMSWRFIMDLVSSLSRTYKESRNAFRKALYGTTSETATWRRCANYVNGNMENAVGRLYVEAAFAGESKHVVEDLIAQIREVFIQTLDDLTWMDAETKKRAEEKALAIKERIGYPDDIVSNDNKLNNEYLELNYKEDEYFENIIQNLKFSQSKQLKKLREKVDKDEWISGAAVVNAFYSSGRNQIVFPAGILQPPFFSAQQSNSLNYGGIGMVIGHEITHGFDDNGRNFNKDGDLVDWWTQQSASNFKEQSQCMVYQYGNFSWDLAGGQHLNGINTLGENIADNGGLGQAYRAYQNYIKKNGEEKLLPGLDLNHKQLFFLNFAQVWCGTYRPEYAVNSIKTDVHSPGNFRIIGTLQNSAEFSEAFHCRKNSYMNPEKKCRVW

As to “purified Porcine Kidney CD10 (Elastin Products Company)”, the % hydrolysis/10 hr in the data set with Suc-Leu-Ala-Gly-Dox came out at 0%; with Suc-Leu-Ala-Leu-Dox, 8.3%; with Suc-βAla-Leu-Ala-Leu-Dox it was 10.9%. For the same molecule, the Fraction hydrolyzed relative to standard in the data set with Suc-Leu-Ala-Gly-Dox was determined as 0; with Suc-Leu-Ala-Leu-Dox it was 0.75; in the data set on Suc-βAla-Leu-Ala-Leu-Dox it was 1.

Regarding “trouase (carcinoma cell enzyme preparations; HeLa cell anion exchange fraction pool)”, the Relative Cleavage % in the data set with Suc-Leu-Ala-Leu-Dnr is 76%; with Suc-Phe-Gly-Phe-Dnr, 12%; in the data set on Suc-Tyr-Ala-Ile-Dnr, 25%; in the data set with Suc-Tyr-Ala-Leu-Dnr, 77%; in the data set on Suc-Phe-Gly-Ile-Dnr it was 54%; in the data set on Suc-Leu-Ala-Gly-Dox, 40%. Also, the Relative Cleavage % in the data set with Suc-Met-Gly-Phe-Dnr came to 29%; in the data set on Suc-Met-Gly-Ile-Dnr it was 46%; with Suc-Nle-Gly-Phe-Dnr, 17%; in the data set with Suc-Met-Ala-Leu-Dox it was 49%; in the data set with Suc-Leu-Ala-Leu-Dox it was 62%; in the data set on Pyg-Leu-Ala-Leu-Dnr, 76%. The Relative Cleavage % was found to be 69% with Suc-Met-Ala-Leu-Dnr, 24% in the data set on Suc-Phe-Gly-Leu-Dnr and 55% with Suc-Met-Gly-Leu-Dnr. Besides, the “cleavage by carcinoma enzyme preparations (HPLC, 2 hr at 37 C)” value (“cleavage … (HPLC, 2 hr at 37 C)” below) in the data set with Suc-Leu-Ala-Leu-Dnr, with Suc-Phe-Gly-Phe-Dnr, in the data set on Suc-Tyr-Ala-Ile-Dnr, in the data set with Suc-Phe-Gly-Ile-Dnr, in the data set with Suc-Nle-Ala-Leu-Dnr and in the data set on Suc-Leu-Ala-Gly-Dox was “cleaved by the trouase under the given conditions” in each case. For the same molecule, the “cleavage … (HPLC, 2 hr at 37 C)” value in the data set with Suc-Leu-Thr-Leu-Dnr, in the data set with Suc-Met-Gly-Phe-Dnr, in the data set with Suc-Leu-Tyr-Leu-Dox, with Suc-Met-Gly-Ile-Dnr, in the data set on Suc-Leu-Tyr-Leu-Dnr and with Suc-Met-Ala-Leu-Dox was “cleaved by the trouase under the given conditions” in each case. Besides, the “cleavage … (HPLC, 2 hr at 37 C)” value with Suc-Leu-Ala-Leu-Dox, with Pyg-Leu-Ala-Leu-Dnr, with Suc-Met-Ala-Leu-Dnr, with Suc-Phe-Gly-Leu-Dnr and with Suc-Met-Gly-Leu-Dnr was “cleaved by the trouase under the given conditions” in each case.

As to Suc-Leu-Ala-Gly-Dox [Suc-Leu-Ala-Gly-Dox], in data set [1], the “IC50 (µM), 3H-thymidine incorporation, Namalwa (CD10pos) cells” value came to 17.3 µM; the “IC50 (µM), 3H-thymidine incorporation, Ramos (CD10pos) cells” value worked out at 22.7 µM; the “Ratio of IC50 Ball-1 (CD10neg):Namalwa (CD10pos)” value is 1; the “Ratio of IC50 Ball-1 (CD10neg):Ramos (CD10pos)” value turned out to be 1.

For the molecule Suc-Leu-Ala-Leu-Dox [Suc-Leu-Ala-Leu-Dox], in data set [1], the “IC50 (µM), 3H-thymidine incorporation, Namalwa (CD10pos) cells” value is 2.27 µM; the “IC50 (µM), 3H-thymidine incorporation, Ramos (CD10pos) cells” value came to 2.63 µM; the “Ratio of IC50 Ball-1 (CD10neg):Namalwa (CD10pos)” value was determined as 35; the “Ratio of IC50 Ball-1 (CD10neg):Ramos (CD10pos)” value was 30.
